Laboratory results published in the supplement of paper PMC9170038.

Tested on: MS2 coat protein
Test: apparent KD of MS2 coat protein; designed switch direction (-1 OFF switch, 1 ON switch): 1; higher = weaker reporter binding
Outline: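 Transcription of designed RNA switches on Illumina chips was done by stalled E. coli RNA polymerase. SNAP-549-labelled MS2 coat protein was then titrated in doubling steps from 0.7 or 1.5 nM to 3 µM, with steps of 0.8–1.5 h at the lowest and 10–20 min at the highest concentration. The per-design median over clusters of curve-fitted normalised fluorescence is reported as apparent KD.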

[1] = input ligand: microRNA oligo, concentration not stated
[2] = Eterna round: R95, input ligand: FMN 200 uM
[3] = Eterna round: R95, input ligand: microRNA oligo, concentration not stated
[4] = Eterna round: R95, input ligand: none

Row | Sequence | apparent KD of MS2 coat protein (input ligand: FMN 200 uM) [nM] | apparent KD of MS2 coat protein [1] [nM] | apparent KD of MS2 coat protein (input ligand: none) [nM] | apparent KD of MS2 coat protein [2] [nM] | apparent KD of MS2 coat protein [3] [nM] | apparent KD of MS2 coat protein [4] [nM]
1 | AUACAUAUCAGAGGAUAUCACGUCGAUUAGACGUGAGAAGGCUGAUCACACAUGAAUAUUAAUACAUGAGGAUCACCCAUGUAU [SSNG1/14-A2] (Eterna round: R96, puzzle: Same State NG 1) | 20.6 | 14.8 | 18.8 | – | – | –
2 | AAUUUCUAGAGAGGAUAUGCAGAGGAUCACCCUGCAGAAGGCUCGAGAGAGAGGAUAUGCAGAGGAUCACCCUGCAGAAGGCUC [pwkr ssNG DX.29] (Eterna round: R96, puzzle: Same State NG 1) | 14.5 | 14.7 | 18.4 | – | – | –
3 | GGGAAGAGGGACAAGGAUAUGUCAGGAGAGACAUGAGGAUCACCCAUGUGGAGGUUGGAGCAGAGACAGAAGGUGUACGGAGAGA [JR_SS2_Sub010] (puzzle: Same State 2) | – | – | – | 108 | 118 | 145
4 | GGAGCCAAGGCAGGAUAUUCAUAUUAACAACAUGAGGAUCACCCAUGUAAGGCCAGAAGGCCUUGGGAGAAGGGCCAUGGCUCG [Xeonanis - 13 mod4] (Eterna round: R96, puzzle: Same State NG 2) | 26.2 | 110 | 187 | – | – | –
5 | GUUACAUGAGGAUCACCCAUGUAUGUGUGGGAGUAAGUGUCUUAGGAUAUCUGUUAUUCAAUUUAAGAGAAGGAAGAUUGUUGU [JMF's solution 38] (Eterna round: R96, puzzle: Same State NG 3) | 97.1 | 49.5 | 76.5 | – | – | –
6 | AUAAAACAUGAGGAUCACCCAUGUCAACAAAGUCGAGGAUAUGGUCAAAUAAAAUAAGAACCAGAAGGCGAAUAAU [salish99_ss1_r3_029] (puzzle: Same State 1) | – | – | – | 17.8 | 26.3 | 25.3
7 | GUGGUGUAGAUACAGGAUAUGUUGCUCGUAACAUGAGGAUCACCCAUGUAUCUAUGAGAAUAAAUGCAGAAGGGUGCACACCACU [Mat - Same State 2 - Mod of UCT - D74] (puzzle: Same State 2) | – | – | – | 24.7 | 467 | 639
8 | UGUUGUUAACUAGGAUAUGGUCACAUGAGGAUCACCCAUGUAAUGUCGAUGCUAUGUGGAUUUGAUCAGAAGGAGUGGUUAACA [SameState NG2 #99] (Eterna round: R96, puzzle: Same State NG 2) | 66.4 | 58.8 | 58.4 | – | – | –
9 | UAGUAUCAACGAGGAUAUAAUAUGUUCAAUUUUUUAUAUUGUUUACAUGAGGAUCACCCAUGUUAUUAGAAGGCGUAUGGGAUU [JR_SSNG2_Sub083] (Eterna round: R96, puzzle: Same State NG 2) | – | 47.2 | – | – | – | –
10 | CGUCGUUUGAUAGGAUAUCGCUUUACAUGCGGAUCACCCAUGUUUACCACGCUGGUUUUUCUUUCCGAGAAGGAUUCUGAUGUU [salish99_SSNG02_r04_026] (Eterna round: R96, puzzle: Same State NG 2) | 42 | 10.1 | 134 | – | – | –
11 | UUUUUGAUCCGAGGAUAUCCUUUUUUCUUACAUGAGGAUCACCCAUGUAAAGGGAUUGAGUUGUAGGAGAAGGCGGUUUUUGUU [JR_SSNG2_Sub059] (Eterna round: R96, puzzle: Same State NG 2) | 19.8 | 28.3 | 35 | – | – | –
12 | AAAUAGCAUGGAAACAUGCUAAAAACUGUACAUGAGGAUCACCCAUGUCAUGUGUAGGCUUUUUGUUCGUCUUAUAA [Effort 12] (Eterna round: R96, puzzle: Sensor for hsa-mir-208a) | 25.5 | 12.3 | 27.8 | – | – | –
13 | GGUCCAGCUUUUGCUGGUCCUUCGCUUGCACAUGAGGAUCACCCAUGUCGUGUACAUGCUUGGUGCCCGUCUUUUUU [Photon Torp-16] (puzzle: Sensor for hsa-mir-208a) | – | – | – | 137 | 44.9 | 229
14 | UGCCAUUGUAUAUUGGUGCAAGCUUUUUGACAUGAGGAUCACCCAUGUACUCGUCUUAUGUGCAGUCCGUAGACUGC [JL-shm-2.23 Brourd mod] (puzzle: Sensor for hsa-mir-208a) | – | – | – | 24 | 13.5 | 22.8
15 | GCGUGAGAGAUAGGAUAUCGUGUACCUACAUGUGACAUGAGGAUCACCCAUGUGGUAAGUAUGAGCGAGAAGGAUCCGAUAUGU [salish99_SSNG2_r04_1003] (Eterna round: R96, puzzle: Same State NG 2) | 28.2 | 54.7 | 63.5 | – | – | –
16 | GGAAUGUGAUGUUACAUGAGGAUCACCCAUGUAGUGACAACUAAGGAUAUCUGAAAAGAAGGAGAGGAGAAGGUAGGAUCACAA [AK SSNG3-V2-15] (Eterna round: R96, puzzle: Same State NG 3) | 30.8 | 39.2 | 58.9 | – | – | –
17 | ACGCAGCUAGGUGAGGAUAUCGGUGGUAAAACAUGAGGAUCACCCAUGUCCGAAGCUCGGACUUCCGAGAAGGCGCCCGGCUGCA [Velaberi] (Eterna round: R96, puzzle: Same State 2) | 12.7 | 78.8 | 106 | – | – | –
18 | UCAAGCGUUUGGCUCGUUUUAUGUUUUGUACAUGAGGAUCACCCAUGUUUUGUACGAUCCAGUUAGAUGGUAUUUUG [JR_SHM208A_Sub039] (puzzle: Sensor for hsa-mir-208a) | – | – | – | 39.6 | 93 | 56.8
19 | GUAGGACAUGAGGAUCACCCAUGUGGGAGGGAACGAGGAUAUGUGAAAGGAUUGAAGAGGACAGAAGGCGUGGAGG [JR_SS1_Sub026] (puzzle: Same State 1) | – | – | – | – | 30.1 | –
20 | CUGCUACAUGAGGAUCACCCAUGUUGGAGUAAUGCAGGAUAUGUGGGACCAGAAGAUAAAACAGAAGGGCAAGGAG [JR_SS!_Sub007] (puzzle: Same State 1) | – | – | – | 18 | 14.4 | 28.8
21 | GCUAGGAAAGAAGCCAACAUGAGGAUCACCCAUGUAUGUUGGUAGGAUAUCGUUUGCAAAGCAAACGAGAAGGGCUAACCUAGC [Mat - Same State NG 3 - JL Mod - D73] (Eterna round: R96, puzzle: Same State NG 3) | 202 | 203 | 184 | – | – | –
22 | GUAUAACAUGAGGAUCACCCAUGUCAACAAAGUCGAGGAUAUGGGCAGAGAGGAGAAGAACCAGAAGGCGAAUAUG [Mat - Same State 1 - Mod of UCT - D37] (puzzle: Same State 1) | – | – | – | 77.8 | 59.2 | 122
23 | AGCUAGUACCGAGGAUAUACGUACAUGAGGAUCACCCAUGUAUACAUGAUUAAAUGAGACUACAUGUAGAAGGCGGUACUAGCA [Mat - Same State NG 2 - JL mod - D48] (Eterna round: R96, puzzle: Same State NG 2) | 15 | 27.1 | 48.1 | – | – | –
24 | CCGUUCAAUAAACAUGAGGAUCACCCAUGUUAUAAUAUGGGUGAGGAUAUGCAUCUGAAACAGGUGCAGAAGGCAUAAGAGCGG [JL SSNG3 3.92] (Eterna round: R96, puzzle: Same State NG 3) | 214 | 37.7 | 100 | – | – | –
25 | UAGAACAAGCUUUUUGCCCGUCUUAUAUAACAUGAGGAUCACCCAUGUAAGGUGAAAGUUAGAGAGUGGAGGUUGAA [JR_SHM208A_Sub048] (puzzle: Sensor for hsa-mir-208a) | – | – | – | 216 | 193 | 156
26 | UGUUAACAUGAGGAUCACCCAUGUCAAAUGAAUCGAGGAUAUGGAAAGUAAUAAGAUGAACUAGAAGGUGAAGUUG [Altered State 1-19 - Jieux - Same State 1] (puzzle: Same State 1) | – | – | – | 37.1 | 55.7 | 57.3
27 | CGUCGUUUGCUAGGAUAUCGCUAUACAUGAGGAUCACCCAUGUUUACCACGCUGGUUUUUCAUACCGAGAAGGAGUCUGAUGUU [salish99_SSNG02_r04_020] (Eterna round: R96, puzzle: Same State NG 2) | 28.8 | 24.8 | 33 | – | – | –
